{"source": "the supplement of paper PMC11316812", "key": {"[1]": {"tested_on": "hTERT-HMEC", "assay": "percentage of EdU-negative (G0-arrested) nuclei per well, 72 h; higher = more G0 arrest", "conditions": "reference: sequence is the full UniProt precursor, the tested protein was the secreted form or ectodomain"}, "[2]": {"tested_on": "MCF7", "assay": "percentage of EdU-negative (G0-arrested) nuclei per well, 72 h; higher = more G0 arrest", "conditions": "reference: sequence is the full UniProt precursor, the tested protein was the secreted form or ectodomain"}, "[3]": {"conditions": "protein concentration 0.0225 µM"}, "[4]": {"conditions": "protein concentration 0.01425 µM"}, "[5]": {"conditions": "protein concentration 0.1425 µM"}, "[6]": {"conditions": "protein concentration 0.0257143 µM"}, "[7]": {"conditions": "protein concentration 0.257143 µM"}, "[8]": {"conditions": "protein concentration 0.01625 µM"}, "[9]": {"conditions": "protein concentration 0.1625 µM"}, "[10]": {"conditions": "protein concentration 0.03125 µM"}, "[11]": {"conditions": "protein concentration 0.3125 µM"}}, "note": "± gives the standard deviation of the averaged measurements.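 Note: secreted proteins added to cultured cells, EdU pulse at the end, nuclei found by Hoechst imaging, EdU status from nuclear versus surrounding ring intensity ratio, PBS as neutral control.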", "data": [{"sequence": "MKISILLMFLWGLSCALPVTRYQNNESEDSEEWKGHLAQAPTPPLESSESSEGSKVSSEEQANEDPSDSTQSEEGLGSDDHQYIYRLAGGFSRSTGKGGDDKDDDEDDSGDDTFGDDDSGPGPKDRQEGGNSRLGSDEDSDDTIQASEESAPQGQDSAQDTTSESRELDNEDRVDSKPEGGDSTQESESEEHWVGGGSDGESSHGDGSELDDEGMQSDDPESIRSERGNSRMNSAGMKSKESGENSEQANTQDSGGSQLLEHPSRKIFRKSRISEEDDRSELDDNNTMEEVKSDSTENSNSRDTGLSQPRRDSKGDSQEDSKENLSQEESQNVDGPSSESSQEANLSSQENSSESQEEVVSESRGDNPDPTTSYVEDQEDSDSSEEDSSHTLSHSKSESREEQADSESSESLNFSEESPESPEDENSSSQEGLQSHSSSAESQSEESHSEEDDSDSQDSSRSKEDSNSTESKSSSEEDGQLKNIEIESRKLTVDAYHNKPIGDQDDNDCQDGY", "values": [{"measurement": "percentage of EdU-negative", "setting": "[1]; protein concentration 0.021 µM", "result": "4.74 ± 0.51", "unit": "%"}, {"measurement": "percentage of EdU-negative", "setting": "[1]; protein concentration 0.21 µM", "result": "14.1 ± 2.1", "unit": "%"}, {"measurement": "percentage of EdU-negative", "setting": "[2]; protein concentration 0.021 µM", "result": "24.6 ± 0.6", "unit": "%"}, {"measurement": "percentage of EdU-negative", "setting": "[2]; protein concentration 0.21 µM", "result": "26.3 ± 0.99", "unit": "%"}]}, {"sequence": "MKITGGLLLLCTVVYFCSSSEAASLSPKKVDCSIYKKYPVVAIPCPITYLPVCGSDYITYGNECHLCTESLKSNGRVQFLHDGSC", "values": [{"measurement": "percentage of EdU-negative", "setting": "[1]; [3]", "result": "5.21 ± 1.1", "unit": "%"}, {"measurement": "percentage of EdU-negative", "setting": "[1]; protein concentration 0.225 µM", "result": "6.62 ± 0.67", "unit": "%"}, {"measurement": "percentage of EdU-negative", "setting": "[2]; [3]", "result": "23.6 ± 1.3", "unit": "%"}, {"measurement": "percentage of EdU-negative", "setting": "[2]; protein concentration 0.225 µM", "result": "24.5 ± 2.9", "unit": "%"}]}, {"sequence": "MKITSTSCICPVLVCLCFVQRCYGTAHHSSIKVMRNQTKHIEGETEVHHRPKRGWVWNQFFVLEEHMGPDPQYVGKLHSNSDKGDGSVKYILTGEGAGTIFIIDDTTGDIHSTKSLDREQKTHYVLHAQAIDRRTNKPLEPESEFIIKVQDINDNAPKFTDGPYIVTVPEMSDMGTSVLQVTATDADDPTYGNSARVVYSILQGQPYFSVDPKTGVIRTALHNMDREAREHYSVVIQAKDMAGQVGGLSGSTTVNITLTDVNDNPPRFPQKHYQLYVPESAQVGSAVGKIKANDADTGSNADMTYSIINGDGMGIFSISTDKETREGILSLKKPLNYEKKKSYTLNIEGANTHLDFRFSHLGPFKDATMLKIIVGDVDEPPLFSMPSYLMEVYENAKIGTVVGTVLAQDPDSTNSLVRYFINYNVEDDRFFNIDANTGTIRTTKVLDREETPWYNITVTASEIDNPDLLSHVTVGIRVLDVNDNPPELAREYDIIVCENSKPGQVIHTISATDKDDFANGPRFNFFLDERLPVNPNFTLKDNEDNTASILTRRRRFSRTVQDVYYLPIMISDGGIPSLSSSSTLTIRVCACERDGRVRTCHAEAFLSSAGLSTGALIAILLCVLILLAIVVLFITLRRSKKEPLIISEEDVRENVVTYDDEGGGEEDTEAFDITALRNPSAAEELKYRRDIRPEVKLTPRHQTSSTLESIDVQEFIKQRLAEADLDPSVPPYDSLQTYAYEGQRSEAGSISSLDSATTQSDQDYHYLGDWGPEFKKLAELYGEIESERTT", "values": [{"measurement": "percentage of EdU-negative", "setting": "[1]; [4]", "result": "5.06 ± 0.45", "unit": "%"}, {"measurement": "percentage of EdU-negative", "setting": "[1]; [5]", "result": "7.93 ± 0.73", "unit": "%"}, {"measurement": "percentage of EdU-negative", "setting": "[2]; [4]", "result": "26 ± 2.9", "unit": "%"}, {"measurement": "percentage of EdU-negative", "setting": "[2]; [5]", "result": "37 ± 4.3", "unit": "%"}]}, {"sequence": "MKKFFTVAILAGSVLSTAHGSLLNLKAMVEAVTGRSAILSFVGYGCYCGLGGRGQPKDEVDWCCHAHDCCYQELFDQGCHPYVDHYDHTIENNTEIVCSDLNKTECDKQTCMCDKNMVLCLMNQTYREEYRGFLNVYCQGPTPNCSIYEPPPEEVTCSHQSPAPPAPP [Q9BZM2]", "values": [{"measurement": "percentage of EdU-negative", "setting": "[1]; [3]", "result": "5.18 ± 0.43", "unit": "%"}, {"measurement": "percentage of EdU-negative", "setting": "[1]; protein concentration 0.225 µM", "result": "5.34 ± 1.1", "unit": "%"}, {"measurement": "percentage of EdU-negative", "setting": "[2]; [3]", "result": "24.06 ± 0.22", "unit": "%"}, {"measurement": "percentage of EdU-negative", "setting": "[2]; protein concentration 0.225 µM", "result": "26 ± 1.2", "unit": "%"}]}, {"sequence": "MKKSGVLFLLGIILLVLIGVQGTPVVRKGRCSCISTNQGTIHLQSLKDLKQFAPSPSCEKIEIIATLKNGVQTCLNPDSADVKELIKKWEKQVSQKKKQKNGKKHQKKKVLKVRKSQRSRQKKTT", "values": [{"measurement": "percentage of EdU-negative", "setting": "[1]; [6]", "result": "4.62 ± 0.47", "unit": "%"}, {"measurement": "percentage of EdU-negative", "setting": "[1]; [7]", "result": "6.18 ± 1.4", "unit": "%"}, {"measurement": "percentage of EdU-negative", "setting": "[2]; [6]", "result": "24.8 ± 0.99", "unit": "%"}, {"measurement": "percentage of EdU-negative", "setting": "[2]; [7]", "result": "27.7 ± 2.3", "unit": "%"}]}, {"sequence": "MKLAALLGLCVALSCSSAAAFLVGSAKPVAQPVAALESAAEAGAGTLANPLGTLNPLKLLLSSLGIPVNHLIEGSQKCVAELGPQAVGAVKALKALLGALTVFG [Q96QR1]", "values": [{"measurement": "percentage of EdU-negative", "setting": "[1]; [3]", "result": "5.9 ± 0.79", "unit": "%"}, {"measurement": "percentage of EdU-negative", "setting": "[1]; protein concentration 0.225 µM", "result": "5.2 ± 0.81", "unit": "%"}, {"measurement": "percentage of EdU-negative", "setting": "[2]; [3]", "result": "21.8 ± 1.8", "unit": "%"}, {"measurement": "percentage of EdU-negative", "setting": "[2]; protein concentration 0.225 µM", "result": "23.7 ± 1.3", "unit": "%"}]}, {"sequence": "MKLAFLFLGPMALLLLAGYGCVLGASSGNLRTFVGCAVREFTFLAKKPGCRGLRITTDACWGRCETWEKPILEPPYIEAHHRVCTYNETKQVTVKLPNCAPGVDPFYTYPVAIRCDCGACSTATTECETI [Q86YW7]", "values": [{"measurement": "percentage of EdU-negative", "setting": "[1]; [3]", "result": "5.52 ± 0.71", "unit": "%"}, {"measurement": "percentage of EdU-negative", "setting": "[1]; protein concentration 0.225 µM", "result": "5.1 ± 0.082", "unit": "%"}, {"measurement": "percentage of EdU-negative", "setting": "[2]; [3]", "result": "25.3 ± 2.8", "unit": "%"}, {"measurement": "percentage of EdU-negative", "setting": "[2]; protein concentration 0.225 µM", "result": "25.8 ± 1.5", "unit": "%"}]}, {"sequence": "MKLALLLPWACCCLCGSALATGFLYPFSAAALQQHGYPEPGAGSPGSGYASRRHWCHHTVTRTVSCQVQNGSETVVQRVYQSCRWPGPCANLVSYRTLIRPTYRVSYRTVTVLEWRCCPGFTGSNCDEECMNCTRLSDMSERLTTLEAKVLLLEAAERPSSPDNDLPAPESTPPTWNEDFLPDAIPLAHPVPRQRRPTGPAGPPGQTGPPGPAGPPGSKGDRGQTGEKGPAGPPGLLGPPGPRGLPGEMGRPGPPGPPGPAGNPGPSPNSPQGALYSLQPPTDKDNGDSRLASAIVDTVLAGVPGPRGPPGPPGPPGPRGPPGPPGTPGSQGLAGERGTVGPSGEPGVKGEEGEKAATAEGEGVQQLREALKILAERVLILEHMIGIHDPLASPEGGSGQDAALRANLKMKRGGAQPDGVLAALLGPDPGQKSVDQASSRK [Q96A83]", "values": [{"measurement": "percentage of EdU-negative", "setting": "[1]; [8]", "result": "4.63 ± 0.36", "unit": "%"}, {"measurement": "percentage of EdU-negative", "setting": "[1]; [9]", "result": "7.44 ± 3.3", "unit": "%"}, {"measurement": "percentage of EdU-negative", "setting": "[2]; [8]", "result": "26.9 ± 1.4", "unit": "%"}, {"measurement": "percentage of EdU-negative", "setting": "[2]; [9]", "result": "25.1 ± 1.8", "unit": "%"}]}, {"sequence": "MKLAVTLTLVTLALCCSSASAEICPSFQRVIETLLMDTPSSYEAAMELFSPDQDMREAGAQLKKLVDTLPQKPRESIIKLMEKIAQSSLCN", "values": [{"measurement": "percentage of EdU-negative", "setting": "[1]; [10]", "result": "4.77 ± 0.77", "unit": "%"}, {"measurement": "percentage of EdU-negative", "setting": "[1]; [11]", "result": "4.91 ± 0.97", "unit": "%"}, {"measurement": "percentage of EdU-negative", "setting": "[2]; [10]", "result": "22.8 ± 2.1", "unit": "%"}, {"measurement": "percentage of EdU-negative", "setting": "[2]; [11]", "result": "24.6 ± 0.57", "unit": "%"}]}]}
